For test [1], the target named is Fc-tagged ACE2 recombinant protein (human) (UniProt Q9BYF1). As to the kind of experiment: BLI. (In BLI a coated tip is dipped into the sample, and binding shifts an interference pattern.)
Test [2] deals with ACE2 (angiotensin-converting enzyme II receptor), full length, expressed on U937 cells (human) (UniProt Q9BYF1). Description: adhesion frequency assay (micropipette).

In general, Kd refers to the free concentration of one partner at which half of the binding sites on the other are occupied at equilibrium, for simple one-to-one binding. Usually koff stands for the rate constant with which the complex falls apart. For orientation: kon means a measure of how fast the partners come together.

Consider “SARS2-RBD^WT (receptor-binding domain of the SARS-CoV-2 spike, residues 333-527) (domain or fragment; other documents disagree on this pair)”, for which, in test [1], the Kd came out at 66.7 nM, the koff turned out to be 0.0121 s⁻¹ and the kon came out at 181000 M⁻¹ s⁻¹. Also, the koff in test [2] was 0.0569 s⁻¹.

(Values after publication PMC8406658.)
